From paper PMC10830117 (Science Advances, 2024)

Biological target: T1, Glutathione synthetase (GSS), full-length wild type, recombinant (human, UniProt P48637 1-474)
T1 sequence (looked up): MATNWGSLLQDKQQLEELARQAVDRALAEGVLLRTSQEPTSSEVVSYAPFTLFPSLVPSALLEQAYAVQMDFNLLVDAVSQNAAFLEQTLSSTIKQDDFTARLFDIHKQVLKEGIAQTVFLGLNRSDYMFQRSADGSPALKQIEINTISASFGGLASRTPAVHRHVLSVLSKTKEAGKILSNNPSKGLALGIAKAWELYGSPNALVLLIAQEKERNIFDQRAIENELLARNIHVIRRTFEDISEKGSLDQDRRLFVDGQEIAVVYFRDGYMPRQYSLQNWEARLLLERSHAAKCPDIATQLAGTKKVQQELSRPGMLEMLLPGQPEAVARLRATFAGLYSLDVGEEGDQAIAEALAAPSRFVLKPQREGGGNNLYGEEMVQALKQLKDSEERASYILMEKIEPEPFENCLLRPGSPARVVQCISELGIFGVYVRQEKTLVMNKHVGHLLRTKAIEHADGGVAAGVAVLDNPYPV
Experiment: SPR

B1: Human LMPTP-A (low-molecular weight protein tyrosine phosphatase, isoform A) (enzyme, UniProt P24666 1-158, looked up)
chain: MAEQATKSVLFVCLGNICRSPIAEAVFRKLVTDQNISENWRVDSAATSGYEIGNPPDYRGQSCMKRHGIPMSHVARQITKEDFATFDYILCMDESNLRDLNRKSNQVKTCKAKIELLGSYDPQKQLIIEDPYYGNDSDFETVYQQCVRCCRAFLEKAH
In the case of B1, the Kd is reported as 244 ± 2 nM and the “stoichiometry N” value is reported as 1.
